Target: T1, receptor of advanced glycation end products (RAGE) on NK cells (human, UniProt Q15109 23-404)
T1 construct: whole, on cells; Endogenous receptor on primary NK cells from healthy donors; also called Receptor for Advance Glycation End product
Experiment: flow cytometry of RAGE on NK cells treated with rhCHI3L1, and phospho-JNK flow cytometry (binding inferred)
Procedure: (a) Dot plots for RAGE expression on NK cells (left) and MFI of RAGE expression on NK cells treated with rhCHI3L1. (b) MFI of lytic granules staining in NKs treated with CHI3L1 (50 ng/ml) or anti-RAGE Blocking antibody (10 ug/ml) for 1 h. (c) effect of RAGE blockade on NK cells cytotoxicity (d) Basal P-JNK levels in NK cells treated with CHI3L1 (e) P-JNK levels in NK cells after 10 min of stimulation by RAGE ligand S100A8/A9 (10 ug/ml) alone or with rhCHI3L1 (100 ng/ml) and (f) P-JNK levels in time during ADCC of NK cells incubated with SKBR3 targets at (5:1) E:T ratio. All plots are representative of at least two
Single-cell suspensions, of blood or from cell culture, were obtained and incubated with Fc receptor-blocking antibody before being stained on ice. Dead cells were excluded by live/dead staining using fixable live/dead stain dyes (Thermofisher scientific). Primary NK cells [from healthy donors, after informed consent] were gated as singlets, CD14neg, FSC−. SSC appropriate for lymphocytes, CD3neg, CD16/CD56 poscells. Intracellular staining was performed using a fixation and permeabilization buffer (BD Bioscience). […] Stained cells were analyzed on FACSCanto II cytometer (BD Biosciences). […] Flow cytometry data were analyzed with FlowJo v10 software (Tree Star).

T1 sequence (Q15109 23-404): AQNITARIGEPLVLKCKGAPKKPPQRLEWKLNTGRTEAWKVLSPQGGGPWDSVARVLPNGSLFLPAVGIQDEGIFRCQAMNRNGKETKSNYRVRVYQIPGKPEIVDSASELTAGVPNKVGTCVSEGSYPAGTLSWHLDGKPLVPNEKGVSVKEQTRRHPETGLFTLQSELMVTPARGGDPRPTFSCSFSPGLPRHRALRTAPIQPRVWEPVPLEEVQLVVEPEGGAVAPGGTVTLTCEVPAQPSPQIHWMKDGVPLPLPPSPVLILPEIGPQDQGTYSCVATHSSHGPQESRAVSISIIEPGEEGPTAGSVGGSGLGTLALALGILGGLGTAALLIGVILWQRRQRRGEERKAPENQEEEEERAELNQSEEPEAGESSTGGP

B1: recombinant human Chitinase 3-like 1 (rhCHI3L1) (ligand)
chain: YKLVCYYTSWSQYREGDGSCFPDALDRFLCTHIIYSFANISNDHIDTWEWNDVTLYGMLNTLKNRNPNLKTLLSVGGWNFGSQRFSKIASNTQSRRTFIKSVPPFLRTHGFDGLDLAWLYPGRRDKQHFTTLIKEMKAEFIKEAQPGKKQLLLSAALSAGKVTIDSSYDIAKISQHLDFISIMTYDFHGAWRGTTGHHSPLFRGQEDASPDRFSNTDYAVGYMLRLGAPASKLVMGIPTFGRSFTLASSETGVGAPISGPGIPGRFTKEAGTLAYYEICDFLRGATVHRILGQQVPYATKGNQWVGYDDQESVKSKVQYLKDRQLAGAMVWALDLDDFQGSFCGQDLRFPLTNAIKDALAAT
notes: Recombinant protein; also called YKL-40; CHI311
**Q.** Does B1 bind?
**A.** Result: binds
